Measured values: the supplement of paper PMC9170038

test system: K4 kissing-loop RNA reporter; experiment: apparent KD of K4 kissing-loop reporter; higher = weaker reporter binding; conditions: Eterna round: R107; input ligand: FMN 200 uM
Method: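 RNA-MaP round R107: designed RNA switches with theophylline, tryptophan, arginine or FMN aptamers are transcribed on-chip within common flanks. They are titrated with a labelled K4 kissing-loop RNA reporter in RNA-MaP buffer (100 mM Tris pH 7.5, 80 mM KCl, 4 mM MgCl2), without ligand or with the indicated ligand. Median apparent KD per design.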
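Further: bound reporter read as fluorescence of individual clusters on recovered sequencing chips by microscopy, with normalized cluster intensities fitted with a binding model.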

| Sequence | apparent KD of K4 kissing-loop reporter [nM] |
| --- | --- |
| GCAGGAUGAGGAGGAGGAUGAAUUACUGAAGGAGCGCAUAUUUUUGCAGGUAGGUCGCGGUAAAGAAGUAUAGUGAUGUUAUAUA [SSArgA.K] | 333 |
| UGUGUACCGGGAAGGAGCGUGAAUGAUAAUGGAUAUAGUGAUGUUAUAUAUACGAACGAAUCGCAGGUAGGUCGCCCGGAUCCCU [SSArgB.X] | 808 |
| GCAGUGAUGUUGCGGAUGUACAGUGGCGUGCGAGGACCGGUACGGCCGCCACUCGUACAGACCAAGCUAAUACAUCGAUAGGUGA [whbob_SS_Tryp_A_m3] | 344 |
| AGAUGGCAGUGAUGUUGCUGUUGGAGGGAUAAGGAUAUUGGCUAAACAAGAAGGUAUCGGCGGCAUUGAGGAAUGGGAGGCGCCU [theeternabot_exclusion_KL_FMN_A_7] | 530 |
| CGACGGAGUGAUGUUUCGUGGUAUGCUGAUACCAGAUGAAACAGCGUCCCUUGGCAGCAGCAUACGCCAAGGAUAAUAUCCUAGU [Theo B SS t6] | 1200 |
| GGGAGGAGUGGUGUUGAUUAGGGAGCGGAAGGAGCGCCGAGGAAGGCAGGUAGGUCGCCGGAUUAUAGUGAUGUUAUGAAGAGGG [ExArg.J] | 663 |
| UAUUCUAAUGCGGCCGCCACUGGAAGUGAUGUUUCCUCUGGCUAUCAUUUCGGACGGUAUUGUCCCAGGACCGGGCAUCCCUCUC [theeternabot_exclusion_KL_Trp_B_4] | 109 |
| GGAUGGUAGGCGGCCGCCACUAAAACUGAACACAUACAAGCCAGUGAUGUUGGUAUGAUGAAGUAUAGGACCGGGCCUAGAUAGA [Exclusion - Tryptophan B (Freestyle 3)] | 446 |
| GGCACGGUGGCGCGACUGCCGUGCGCUUGGGAGGAUAUGUUUCGUGACAGAAGGCCCAGUGAUGUUGGGUCUGUUCAAAAGGACU [Gegearer] | 359 |
| UAUAUAGUGACGGCCGCCACUAUAGUGAUGUUAUUGUUAGAGUGAUGUUUUGUUGUUUAAUUUUGUAGGACCGGGUUAUAUGUUA [tbbtmullin] | 632 |
| UCGGACCCUGGAGGAUAUGAGUCGAGUGAUGUUCGGCGGUCCAUGCCGAUGCGGCGUUAUGCCCUUUUAGAAGGCCAGGGUCCGA [#2 Exclusion - FMN B Attempt #10 (HarryS)] | 498 |
| AUUAAUUUCAGAGGAUAUCGUUAUUUUUUUAAGUAUAAUCUAUUUUGCAGUGAUGUUGCUAUUAAUCGAGAAGGCUGAUUUAUAA [JR_SSFMNB_Sub020] | 109 |
| AGUACGGACACGGCCGCCACUCAGAAGAAGACAGUAGUGAUGUUACUGAUGGUGAGAAUAAUAAAGAGGACCGGGUGUCGUGCAA [#05 K4 Tryptophan B Same State] | 270 |
| GUUACGCAUGGAAGGAGCGCGAAAAUUUAUAGUGAGUGAUGUUCACAAAUAAGAAUAAUAACGCAGGUAGGUCGCCAUGUGUAAC [Ex Arginine B K4 5] | 87.1 |
| UGAUUGGCGAAAGUAGUGAUGUUACGAAUAUAGGAUAUUAGAGGAAUAAGAAGGAUAAGGGAGAAAUAGGUAAAUUGUUGGUUGG [whbob_SS_FMNA__2th170] | 132 |
| AUUCUAUGGAGUGAUGUUCCUGUGAUGUCACGAGGACCGGUACGGCCGCCACUCGAUGUAUUGGUUUUUGAAAGAAACAACUGCA [Same State-Tryptophan A] | 566 |
| AAGUCUCGUUAAUUCGAGGUUGCGAUCGAUACCAGUAGCGAGAGGUACCCUUGGCAGCGAAGUGAGUGAUGUUCAUGAAAGAAGA [KL-XTheoA13] | 59.8 |
| AGGAUCGAAGAUCCAGCAGUCAAGCAAUACCGAGGACCGGUACGGCCGCCACUCGGAGUGAUGUUCCGAAGACUGCAAAAUAAAA [#SwitchBubble 8] | 640 |
| GCGGCCCAGCCGGAUACCAGUGAGCCGCUGGGAACCGCGGGCCCAGAGUGAUGUUCGGGACACCCUUGGCAGCCGCCUGGGUCGC [#2 Same State - Theophylline B Attempt #20 (HarryS)] | 486 |
| AAUAAAAUCACGGCCGCCACUGAUGCUAAUAUUGGCAGUGAUGUUGCUAUGUAUAUUUUAUUUGACAGGACCGGGUGAAUAUUUA [#24 K4 Tryptophan B Exclusion] | 224 |
| GUAGCACAGUCGGCCGCCACUGUCGGUUCUCCAGUGAUGUUGGAGUUAGUUCGUCGCAGUUCAAACAGGACCGGGACCAUUCCUU [theeternabot_exclusion_KL_Trp_B_26] | 125 |

| Sequence | apparent KD of K4 kissing-loop reporter [nM] |
| --- | --- |
| ACGUGCACCAGUGAUGUUGGAAAAUAUGAAGGAGCGGGAGAAAACCCAGGUAGGUCGCAUAAUUGCACGAGCCACGAAAGUGGCA [#15 K4 Arginine A Same State] | 73.4 |
| UGUGUUUACCUGACUCAGUGAUGUUGAGAAGGAGCGUGCGAACGCACAGGUAGGUCGCUCAACCUAAAUUCAGGUGAGCACUAAA | 430 |
| AAAUAUUCGAGUGAUGUUCGAUAAAUAUCAGAGGAUAUGCUUAAAAGCAGAAGGCUGUAUUUCUAUUUGUUAUGUAAUUUUAUAA [JR_SSFMNA_Sub021] | 125 |
| AAGCAGUCACUCGACGCCAUCGAAGAUGGGCGAGGACCGGUACGGCCGCCACUCGGAGUGAUGUUCUGAUGACUGCAAAAUAAAA [MatMod 8 - Jieux - Exclusion - Tryptophan A] | 119 |
| AAGGUCACUGCUACAGUGAUGUUGUGGGAGCAGGAUAUGCAGAAAUGCAGAAGGGCUCGCUCCAGGUGACCGAAUGAAACAUUCA [whbob_SS_FMNA__2th175] | 1070 |
| AUGCAGUGAUGUUGCUUUGUAUAAACAGAUACCAGUGAAUUUUAACACCCUUGGCAGCUGAUAGAUUCUUAAUUCUAUUAUAUAA [JR_SSTheophyA_Sub020] | 164 |
| UUAUAUACGAGUGAUGUUCGUUAUUUAUCAGAGGAUAUGCUUAAAUGCAGAAGGCUGUUUUUCUAUUUGAUAUUAAAUUUUAUAA [JR_Nu3_ExcFMNA_Sub027] | 81.6 |
| UUGGUCUUUUAAGGAUAUCAUACUCCACUGAGCGAGUGAUGUUCGCUCCUGUUACGCCUGGGACCGUGAGAAGGUAAAGUACCGU [theeternabot_sameState_KL_FMN_B_5] | 149 |
| UCCUAGGACUUCAGGCGAAAGCCCUGCGAAGGAGCGUGCGAAAGCACAGGUAGGUCGCGCAGUGAUGUUGCACCUAGGUAAUAAA [#SwitchBubble 20 #K4Late] | 481 |
| GUGCAGUGAUGUUGCACGAGGAAAGACGAUACCAGCCGUAAAUAAGGCCCUUGGCAGCGUAGGCUAGCAUAAAGCAUGCUAGUCC [Edeson] | 131 |
| UGUCAUUGGUCGGCCGCCACUUUGUAUGGAGUGAUGUUUUGUAGAUUGUGUUGAAAGGUGUGGUGAAGGACCGGGACCGAUGACU [FiskerMod 24 - Jieux - Same State - Tryptophan B] | 1070 |
| UGUACCGAGUCAGGAUAUCAUAAUAAAUGCAGUGAUGUUGCAAUAACCAGUACAAAAGUGCUGGAUUGAGAAGGGACUUGGUACU [FmnBS 5 #SwitchBubble #StaticStem] | 99 |
| AGAGUACGAAAGUACUCCUCUACACACUGACGAGGACCGGUACGGCCGCCACUCGAGUUGAGUGAUGUUCGAUAGUGUGUAGAGA [Omei KL Tryp A SS C v3] | 213 |
| GCAGCUCGGGAGUGAUGUUCUCGUAGAGGAAAGGAUAUGUACUUAGACAGAAGGUUCGCAAUUUGCGGUCUUAAGAUAGAAUAAC [theeternabot_sameState_KL_FMN_A_40] | 177 |
| CACCCAGUCCUCGAUACCAGACUGGCACGUCAAAAGGUCCAGUGAUGUUGAGCCUAACAAGUCCCUUGGCAGCGACCAGUGUAUU [theeternabot_exclusion_KL_Theo_B_30] | 680 |
| AGACUACUGAUAGGAUAUAACAUACUACCUCGUAUACCAAAGGUAUACGAGGCCCUUCUAGUGAUGUUAGAAGGGUCGGUAGUCA [Omei KL FMN B Exc B v5] | 93.5 |
| CUCGAGUGAUGUUCGACGCGUCCGUACGAUACCAGCGUAGACCGUCGCCCUUGGCAGCGUGAUGCAGCCCGAAAGUCCGGUUCCU [theeternabot_sameState_KL_Theo_A_26] | 1160 |
| AAUAUCUAGUAUAUUUUUAAUAAAACAGAUACCAGUGAUAAUAGACACCCUUGGCAGCUGGUCGAGUGAUGUUCGUUUAUUUUAA [JR_SSTheophyA_Sub005] | 82.5 |
| AAUCGCGAGUCAGAUACCAGUUGGCUCGAGAGUCAGUGAUGUUGAUGUAAAUCUUAGGCGAACCCUUGGCAGCUGUCACCAGUCC [theeternabot_sameState_KL_Theo_B_27] | 404 |
| GGAGUUACCUGGGAUACCAGUCGGAGUCCCAGAGCACAGAGUGAUGUUCUGGGAUGUUUCGGCCCUUGGCAGCUCUGGGACUCCC [#2 Exclusion - Theophylline B Attempt #13 (HarryS)] | 482 |
| AUGCAUGAAAGUGAUGUUUUCAGUAAUGGAAAGGAUAUGCGCUGGUGCAGAAGGUUCUAAAGUGCAUCCAACAACUGGGUAGGCC [theeternabot_sameState_KL_FMN_A_36] | 218 |

same assay, conditions: Eterna round: R107; input ligand: arginine 13.2 mM

| Sequence | apparent KD of K4 kissing-loop reporter [nM] |
| --- | --- |
| GCAGGAUGAGGAGGAGGAUGAAUUACUGAAGGAGCGCAUAUUUUUGCAGGUAGGUCGCGGUAAAGAAGUAUAGUGAUGUUAUAUA [SSArgA.K] | 255 |
| UGUGUACCGGGAAGGAGCGUGAAUGAUAAUGGAUAUAGUGAUGUUAUAUAUACGAACGAAUCGCAGGUAGGUCGCCCGGAUCCCU [SSArgB.X] | 494 |
| GCAGUGAUGUUGCGGAUGUACAGUGGCGUGCGAGGACCGGUACGGCCGCCACUCGUACAGACCAAGCUAAUACAUCGAUAGGUGA [whbob_SS_Tryp_A_m3] | 247 |
| AGAUGGCAGUGAUGUUGCUGUUGGAGGGAUAAGGAUAUUGGCUAAACAAGAAGGUAUCGGCGGCAUUGAGGAAUGGGAGGCGCCU [theeternabot_exclusion_KL_FMN_A_7] | 329 |
| CGACGGAGUGAUGUUUCGUGGUAUGCUGAUACCAGAUGAAACAGCGUCCCUUGGCAGCAGCAUACGCCAAGGAUAAUAUCCUAGU [Theo B SS t6] | 611 |
| GGGAGGAGUGGUGUUGAUUAGGGAGCGGAAGGAGCGCCGAGGAAGGCAGGUAGGUCGCCGGAUUAUAGUGAUGUUAUGAAGAGGG [ExArg.J] | 716 |
| UAUUCUAAUGCGGCCGCCACUGGAAGUGAUGUUUCCUCUGGCUAUCAUUUCGGACGGUAUUGUCCCAGGACCGGGCAUCCCUCUC [theeternabot_exclusion_KL_Trp_B_4] | 101 |
| GGAUGGUAGGCGGCCGCCACUAAAACUGAACACAUACAAGCCAGUGAUGUUGGUAUGAUGAAGUAUAGGACCGGGCCUAGAUAGA [Exclusion - Tryptophan B (Freestyle 3)] | 384 |
| GGCACGGUGGCGCGACUGCCGUGCGCUUGGGAGGAUAUGUUUCGUGACAGAAGGCCCAGUGAUGUUGGGUCUGUUCAAAAGGACU [Gegearer] | 125 |
| UAUAUAGUGACGGCCGCCACUAUAGUGAUGUUAUUGUUAGAGUGAUGUUUUGUUGUUUAAUUUUGUAGGACCGGGUUAUAUGUUA [tbbtmullin] | 418 |
